Laboratory results from patent US20170114117A1 (OREGON HEALTH AND SCIENCE UNIVERSITY, published 2017).
Ends that are not written are not given here.

Columns and labels:
DRα1-mMOG-35-55 [1] = target: T1, DRα1-mMOG-35-55; assay: competition ELISA (FIG. 4), competitor against rmCD74 on DRα1mMOG-35-55
T1 construct: Coated onto ELISA plates at 1 µg/ml; also called DRa1mMOG-35-55; DRα1-MOG-35-55

DRα1-mMOG-35-55 [2] = target: T1, DRα1-mMOG-35-55; assay: competition ELISA (FIG. 4, right panel), competitor against rmCD74 on DRα1-mMOG-35-55
[3] = target: T2, human macrophage migration inhibitory factor (MIF) (human, UniProt P14174 2-115); assay: competition ELISA, hMIF coated, competitor against rmCD74 (0.5 µg/ml), two-binding-site fit
T2 construct: Coated onto ELISA plates at 0.5 µg/ml; also called hMIF; human MIF
Description: (§1) The ability of α-helix 1 and α-helix 2 peptides to compete with MIF for binding to CD74 was tested. […] Wells were thoroughly washed with PBS/T20 and the mAb PIN.1/anti-mIgG1-HRP (at 0.5 μg/ml in 5% BSA/PBS each) was used to detect the remaining rmCD74 bound to MIF. This mAb recognizes an epitope located at the N-terminus of the protein. Color was developed after adding 50 μl of TMB for 5 minutes and the reaction was stopped with 50 μl of 0.1N HCl. Data was first normalized and then analyzed using GraphPad Prism software. IC₅₀ were calculated by fitting the curve to a competition model involving a two-binding site equation.

RTL1000 = target: T3, RTL1000; assay: competition ELISA, RTL1000 coated, competitor against rmCD74 (50 nM), one-binding-site fit
T3 construct: Coated onto ELISA plates at 1 µg/ml; also called recombinant T cell receptor ligand
Description: (§2) Competition of peptides with rmCD74 for binding to RTL1000 or DRα1mMOG35-55 was also tested. Briefly, 50 μl of 1 μg/ml either RTL1000 or DRα1mMOG-35-55 were coated onto ELISA plates at 25° C. for 2 hours. […] Serial 1:2 dilutions of α-helix 1 or α-helix 2 (starting with a concentration of 66 μM, 50 μg/ml each) were prepared in rmCD74 (in BSA/PBS, 50 nM, 0.5 ug/ml) and added to the plate. Competition for the binding site was allowed for 3 hours at 25° C. and then unbound complexes were washed 4 times with PBS/T20. Remaining rmCD74 bound to RTL1000 or DRα1mMOG-35-55 was detected by the PIN.1/anti-mouse IgG1-HRP at 1 ul/ml of both in BSA/PBS for 1.5 hours at 25° C. and visualized by adding TMB substrate (50 μl, according to the manufacturer's instructions). Color development was stopped with 0.1N HCl and the plate was read at 450 nm in an ELISA plate reader. Data were normalized and fitted to a one-binding site model and competitor concentration was plotted against Absorbance at 450 nm to determine the IC₅₀ of each peptide competitor. All data were analyzed using Prism software (GraphPad).

DRα1-mMOG-35-55 [4] = target: T1, DRα1-mMOG-35-55; assay: competition ELISA, DRα1mMOG-35-55 coated, competitor against rmCD74 (50 nM), one-binding-site fit
Description: as §2

[5] = target: T2, human macrophage migration inhibitory …; assay: competition ELISA, hMIF coated, competitor against rmCD74
Description: as §1

DRα1-mMOG-35-55 [6] = target: T1, DRα1-mMOG-35-55; assay: competition ELISA (FIG. 4, left panel), competitor against rmCD74 on DRα1-mMOG-35-55

B1: CD74 α-helix 1 peptide (SEQ ID NO: 2) (peptide)
peptide: TEDHVMHLLQNAD
notes: also called human CD74 α-helix 1; alpha helix 1
IC50 (DRα1-mMOG-35-55 [1]): 35 µM | IC50 (DRα1-mMOG-35-55 [2]): 35 µM | IC50 [3]: 41.8 µM | IC50 (RTL1000): 6.78 µM | LogIC50 (RTL1000): 0.831 | IC50 (DRα1-mMOG-35-55 [4]): 10.1 µM | LogIC50 (DRα1-mMOG-35-55 [4]): 1

B2: CD74 α-helix 2 peptide (SEQ ID NO: 4) (peptide)
peptide: KGSFPENLRHLKNTMET
notes: also called human CD74 α-helix 2; alpha helix 2
IC50 (DRα1-mMOG-35-55 [2]): 24.5 µM | IC50 [3]: 114 µM | IC50 (RTL1000): 34.3 µM | LogIC50 (RTL1000): 1.53 | IC50 (DRα1-mMOG-35-55 [4]): 167 µM | LogIC50 (DRα1-mMOG-35-55 [4]): 2.22

B3: mixture of synthetic peptides SEQ ID NO: 2 (α-helix 1) and SEQ ID NO: 4 (α-helix 2) (other)
peptide 1: TEDHVMHLLQNAD
peptide 2: KGSFPENLRHLKNTMET
modifications: also: mixture of two separate peptides, not covalently linked
notes: A mixture of two separate peptides that are not covalently linked; In the hMIF assay the starting concentration was 33 µM of each peptide, 66 µM in total; also called α-helix 1 plus α-helix 2; combined peptides
fold increase of the blocking effect against α-helix 1 alone [5]: 10 fold | IC50 (DRα1-mMOG-35-55 [1]): 4.75 µM | IC50 (DRα1-mMOG-35-55 [6]): 4.71 µM | IC50 [3]: 3.74 µM
